From patent EP4711453A1, “PHENYLALANINE LYASE MUTANT, AND CONJUGATE THEREOF OR PHARMACEUTICALLY ACCEPTABLE SALT THEREOF” (Peg-Bio Biopharm Co., Ltd. (Chongqing), priority 2023, dated 2024)

Assays:
[1] = Subcutaneous/intravenous pharmacokinetics in dogs (double-antibody sandwich ELISA); assay type: in vivo; conditions: beagle dogs; for dogs with accelerated blood clearance: 2 mg/kg once weekly
Procedure: […] Six beagle dogs were equally divided into two groups: the subcutaneous administration group and the intravenous administration group. […] Blood samples were collected from both groups on days 1, 3, 5, and 7 after the first administration, and on Day 1 and Day 3 after each subsequent administration. Serum plasma drug concentrations were measured using the double-antibody sandwich ELISA method (see Example 5 for details).

[2] = system: anti-PAL protein antibodies; experiment: Anti-PAL protein antibody in rat serum after multiple administrations (bridging ELISA); assay type: in vivo; conditions: SD rats
Procedure: To evaluate PEGylated conjugates of phenylalanine lyase or its mutants with different average degrees of modification, the inventors divided SD rats into four groups (n=6 per group). The animals were subcutaneously injected with PL54-1 and PL54-5 (average degrees of modification: 10.54 and 13.60, respectively) and PL5-1 and PL5-5 (average degrees of modification: 8.2 and 10.53, respectively) from Table 3 of Example 2 at a dose of 2 mg/kg once a week for four doses. Blood samples were collected on D1 (Day 1), D3 (Day 3), and D7 (Day 7) after the first dose, as well as on D3 and D7 following each subsequent dose. The concentrations of PL54-1, PL54-5, PL5-1, and PL5-5 in rat serum were determined by sandwich ELISA to assess plasma drug concentration maintenance after multiple administrations. Anti-PEG-IgM/IgG antibody titers in rat serum from each group were measured using indirect ELISA (coating with PEG-BSA, adding positive rat anti-PEG Abs/test serum samples, followed by HRP-conjugated anti-rat IgM/IgG detection), while bridging ELISA (coating with PAL protein, adding positive sheep anti-PAL Abs/acidified serum samples, followed by biotin-labeled PAL detection) was also performed. The plasma drug concentration results are shown in FIG. 4, and the antibody detection results after administration were shown in FIG. 4 and FIG. 5.

[3] = system: anti-PEG IgG and IgM antibodies; experiment: Comparative immunogenicity with Pegvaliase: anti-PEG IgG and IgM antibodies after multiple administrations; assay type: in vivo; conditions: Pah^enu mice, 3 mg/kg s.c. once weekly for four weeks
Source text: To evaluate the differences in pharmacodynamics and immunogenicity between the polyethylene glycol conjugate PL54-5 of directionally saturated modified phenylalanine lyase mutant and Pegvaliase (marketed drug), eight Pah^enu mice were allocated into two groups of four mice each, and administered with either PL54-5 (average degree of modification: 13.60, specific enzyme activity: 1.27 U/mg) from Table 3 of Example 2 or Pegvaliase Injection (manufactured by BioMarin, purchased lot number L161239, specification: 20 mg/mL/vial) at an administration dose of 3.0 mg/kg, once weekly via subcutaneous injection for four consecutive weeks. Blood samples were collected from each group of mice before administration and at 3 days and 7 days after each administration, respectively. Changes in serum phenylalanine concentration were measured (Reference: Judy Peat et al., Determination of Phenylalanine and Tyrosine by High Performance Liquid Chromatography-Tandem Mass Spectrometry) and anti-PEG-IgM/IgG antibody titers of each animal were determined at the end of the study (see Example 5 for details), to assess differences in pharmacodynamics and immunogenicity, as shown in FIG. 11 and FIG. 12.

[4] = design: species or system Pah^enu mice; conditions: mouse, in vivo
Procedure: (§1) To evaluate the polyethylene glycol conjugate PL54 of site-saturation modified phenylalanine lyase mutant, […] Pah^enu mice were allocated into five groups (four experimental groups and one control group), with six mice in each group. PL54-5 (average degree of modification 13.60, specific enzyme activity 1.27 U/mg) from Table 3 of Example 2 was administered to phenylketonuria animal model mice at low, medium, and high doses of 0.5 mg/kg, 1.5 mg/kg, and 4.5 mg/kg, respectively, via subcutaneous injection. The high-dose group of 4.5 mg/kg also included a group receiving intramuscular administration, once per week. The control group was administered phosphate buffered saline as a placebo subcutaneously once weekly. Blood samples were collected from mice in each group at 1 h before administration and at 2, 5, and 7 days after administration for each group. The content of PL54-5 in serum, changes in phenylalanine concentration (Reference: Judy Peat et al., Determination of Phenylalanine and Tyrosine by High Performance Liquid Chromatography-Tandem Mass Spectrometry), and Anti-PEG-IgM/IgG antibody titers (see Example 5 for details) were detected by sandwich ELISA (see Example 5 for details), and their pharmacokinetics were evaluated, see FIG. 6 to FIG.9 for details.

[5] = system: anti-PEG antibodies; design: species or system Pah^enu mice; conditions: mouse, in vivo
Procedure: as §1

[6] = system: anti-PAL-IgG; experiment: Immunogenicity of conjugates with different PEG molecular weights in rats: anti-PAL-IgG (ELISA); assay type: in vivo; conditions: for anti-PAL-IgG, x (average OD value of antibody detection by ELISA) / anti-PAL-IgG, Positive rate: 0.75 mg/kg s.c. once weekly
Procedure: Polyethylene glycol conjugates of phenylalanine lyase or its mutant with different structures and modifier molecular weights, namely PL20, PL24, and PL54, were prepared according to the method described in Example 2. The phenylalanine lyase in PL20 has the amino acid sequence as set forth in SEQ ID NO: 1, and the polyethylene glycol has a molecular weight of 20K. The phenylalanine lyase in PL24 has the amino acid sequence as set forth in SEQ ID NO: 6, and the polyethylene glycol has a molecular weight of 2K. The phenylalanine lyase in PL54 has the amino acid sequence as set forth in SEQ ID NO: 6, and the polyethylene glycol has a molecular weight of 5K.
To evaluate the immunogenicity of PL20, PL24, and PL54 in animals, normal rats were selected and divided into 3 groups, with 6 rats per group (3 males and 3 females). Subcutaneous administration was performed at a dose of 0.75 mg/kg with PL54 (average degree of modification 13.6, 1.27 U/mg), PL24 (average degree of modification 13.3, 0.96 U/mg), and PL20 (average degree of modification 7.6, 1.14 U/mg) for the three groups, respectively. Administration was repeated 7 times, once weekly. Blood samples were collected 7 days after each administration. Serum anti-PEG-IgG and anti-PAL4 protein antibodies were detected by ELISA (refer to Example 5 for details). In the table, "1-7" indicated 7 days after the first administration, and "7-7" indicated 7 days after the seventh administration. x represented the average OD value of antibody detection by ELISA, and the positive rate represented the ratio of the number of antibody-positive animals to the total number of animals in the group. Table 6: Antibody titers in rats after multiple administrations of polyethylene glycol conjugates with different molecular weights

B1: PL54-5: polyethylene glycol conjugate of PAL4 (SEQ ID NO: 6) with PEG-SPA-5K, molar ratio 1:16, average degree of modification 13.60 (conjugate)
chain: MKTLSQAQSKTSSQQFSFTGNSSANVIIGNQKLTINDVARVARNGTLVSLTNNTDILQGIQASCDYINNAVKSGEPIYGVTSGFGGMANVAISREQASELQTNLVWFLKTGAGNKLPLADVRAAMLLRANSHMRGASGIRLELIKRMEIFLNAGVTPYVYEFGSIGASGDLVPLSYITGSLIGLDPSFKVDFNGKEMDAPTALRQLNLSPLTLLPKEGLAMMNGTSVMTGIAANCVYDTKILTAIAMGVHALDIQALNGTNQSFHPFIHNSKPHPGQLWAADQMISLLANSQLVRDELDGKHDYRDHELIQDRYSLRCLPQYLGPIVDGISQIAKQIEIEINSVTDNPLIDVDNQASYHGGNFLGQYVGMGMDHLRYYIGLLAKHLDVQIALLASPEFSNGLPPSLLGNRERKVNMGLKGLQICGNSIMPLLTFYGNSIADRFPTHAEQFNQNINSQGYTSATLARKSVDIFQNYVAIALMFGVQAVDLRTYKKTGHYDARASLSPATERLYSAVRHVVGQKPTSDRPYIWNDNEQGLDEHIAKISADIAAGGVIVQAVQDILPSLH
modifications: PEG-SPA-5K conjugate, ~13.6 PEG per molecule
- bioavailability of subcutaneous administration relative to intravenous administration ([1]; 2 mg/kg): 64.4%
- dogs with accelerated blood clearance ([1]; after multiple intravenous administrations): 2/3
- dogs with accelerated blood clearance ([1]; after multiple subcutaneous administrations): 1/3
- peak time of blood drug concentration ([1]; 2 mg/kg, single intravenous administration): 1 days
- peak time of blood drug concentration ([1]; 2 mg/kg, single subcutaneous administration): 3 days
- anti-PAL protein antibodies, positive rats ([2]; serum dilution 1:10, 7 days after the fourth dose): 1/6
- anti-PAL protein antibodies ([2]; serum dilution 1:10, after the first dose): very weak positivity
- immunogenicity after long-term administration [3]: significantly lower immunogenicity than pegvaliase
- plasma drug concentration in relation to the administration dose [4]: directly proportional to the administration dose
- plasma drug concentration, intramuscular compared with subcutaneous ([4]; 4.5 mg/kg): higher than that in the subcutaneous administration group
- S/N values of IgG and IgM antibodies (anti-PEG) [5]: decreased with increasing number of administrations
- anti-PEG antibodies [5]: positive
- anti-PAL-IgG, x (average OD value of antibody detection by ELISA) ([6]; 1-7 (7 days after the first administration)): x=0.107
- anti-PAL-IgG, Positive rate ([6]; 1-7, antibody-positive animals / animals in the group): Positive rate: 2/6
- anti-PAL-IgG, x (average OD value of antibody detection by ELISA) ([6]; 7-7 (7 days after the seventh administration)): x=0.089
- anti-PAL-IgG, Positive rate ([6]; 7-7, antibody-positive animals / animals in the group): Positive rate: 0/6
- anti-PAL4 protein antibody ([6]; 7 days after seven doses): No anti-PAL4 protein antibody was detected
